Reference: US7090834B1, “Vascular endothelial cell growth factor variants and uses thereof” (Genentech, Inc., priority 1999, dated 2006)

Legend:
[1] = target: Flt-1 receptor; experiment: Flt-1 receptor binding ELISA (inhibition of biotinylated native VEGF binding to Flt-IgG); settings: for Relative Binding Affinity, FLT-1 Receptor: ratio to native VEGF (8–109): second figure of the cell, fold less binding than native VEGF
Method: (§1) Receptor binding assays were performed in 96-well immunoplates (Maxisorp, Nunc-Immunoplate, Nalge Nunc International, Rochester, N.Y.). Each well was coated with 100 μl of a solution containing 2 μg/ml of rabbit F(ab′)2 to human IgG Fc (Jackson ImmunoResearch, West Grove, Pa.) in 50 mM carbonate buffer at pH 9.6 and incubated at 4° C. overnight. The supernatant was then discarded, the wells were washed three times in washing buffer (0.05% Tween 20 in PBS), and the plate was blocked (150 μl per well) with block buffer (0.5% BSA, 0.01% thimerosal in PBS) at room temperature for one hour. The supernatant was discarded, and the wells were washed.
The wells were filled with 100 μl of a solution containing Flt-IgG (a chimeric Flt-human Fc molecule) at 50 ng/ml in assay buffer (0.5% BSA, 0.05% Tween 20 in PBS). The wells were incubated at room temperature for 1 hour and then washed three times in wash buffer (0.05% Tween 20 in PBS).
(§2) Aliquots of the mixture (100 μl) were added to the precoated microtiter wells and the plate was incubated for 2 hours at room temperature. […] The wells were then incubated with 3, 3′, 5,5′-tetramethyl benzidine (0.2 g/liter, Kirkegaard & Perry Laboratories, Gaithersburg, Md.) for about 10 minutes at room temperature. Absorbance was read at 450 nm on a Vmax plate reader (Molecular Devices, Menlo Park, Calif.).
(§3) Titration curves were fit with a four-parameter nonlinear regression curve-fitting program (KaleidaGraph, Synergy Software, Reading, Pa.).

[2] = target: T1, KDR (1-3) (UniProt P35968 20-327, limits assumed); experiment: competition ELISA vs biotinylated native VEGF (8-109) for KDR (1-3)
T1 construct: domain: domains 1 to 3; Genentech reagent; also called KDR (1-3) monomer; domains 1 to 3 of KDR
Method: as §1, with “containing 8” for “containing 2”, “of a monoclonal antibody” for “of rabbit F(ab′)2”, “to KDR known as MAKD5 (Genentech, South San Francisco, Calif.)” for “to human IgG Fc (Jackson ImmunoResearch, West Grove, Pa.)”, “was” for “was then”
as §2, with “of this” for “of the”, “for 1 hour” for “for 2 hours”, “3, 3', 5,5'-tetramethyl” for “3, 3′, 5,5′-tetramethyl”, “(0.2 gram/liter;” for “(0.2 g/liter,”
as §3

[3] = target: KDR receptor (Homo sapiens, UniProt P35968); experiment: KDR receptor binding ELISA (inhibition of biotinylated native VEGF (8–109) binding); settings: second figure of the cell, variant midpoint concentration divided by that of native VEGF
Method: as §1, with “containing 8” for “containing 2”, “of a monoclonal antibody” for “of rabbit F(ab′)2”, “to KDR known as MAKD5 (Genentech, South San Francisco, Calif.)” for “to human IgG Fc (Jackson ImmunoResearch, West Grove, Pa.)”, “was” for “was then”
as §2, with “of this” for “of the”, “for 1 hour” for “for 2 hours”, “(0.2 gram/liter;” for “(0.2 g/liter,”
as §3

Chain of Flt-1 receptor (P17948 27-327 limits assumed): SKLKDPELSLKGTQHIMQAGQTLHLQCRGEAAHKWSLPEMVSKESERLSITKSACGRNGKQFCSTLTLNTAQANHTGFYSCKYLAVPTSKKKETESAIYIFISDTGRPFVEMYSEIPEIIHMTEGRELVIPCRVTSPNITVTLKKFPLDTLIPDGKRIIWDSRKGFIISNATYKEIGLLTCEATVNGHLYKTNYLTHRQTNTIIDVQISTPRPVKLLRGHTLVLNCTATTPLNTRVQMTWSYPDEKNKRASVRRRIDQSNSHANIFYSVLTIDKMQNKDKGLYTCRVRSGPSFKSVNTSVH
Chain of KDR receptor (P35968 20-327 limits assumed): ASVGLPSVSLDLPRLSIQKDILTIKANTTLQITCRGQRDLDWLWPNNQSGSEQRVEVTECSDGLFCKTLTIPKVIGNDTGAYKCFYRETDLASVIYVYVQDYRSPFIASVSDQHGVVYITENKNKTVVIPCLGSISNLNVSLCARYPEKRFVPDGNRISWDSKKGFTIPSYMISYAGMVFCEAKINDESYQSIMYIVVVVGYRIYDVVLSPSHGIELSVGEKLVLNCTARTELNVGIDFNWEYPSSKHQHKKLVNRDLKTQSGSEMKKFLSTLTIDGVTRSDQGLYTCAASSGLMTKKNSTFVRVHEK
T1 sequence (P35968 20-327 limits assumed): as above

IC50 ([1]; first figure of the cell, Flt-IgG, read-out: Relative Binding Affinity, FLT-1 Receptor: concentration at midpoint absorbance) [nM] | Relative Binding Affinity, FLT-1 Receptor: ratio to native VEGF (8–109) [1] | relative binding affinity (ratio to native VEGF (8-109)) [2] [ratio] | Relative Binding Affinity, KDR Receptor: ratio to native VEGF (8–109) [3] | IC50 [2] [nM] | Molecule
> 400 | – | – | – | – | LK-VRB-2s*: VEGF (1–109) variant with D63S/G65M/L66R; KDR selective variant
– | – | – | 1 nM/1 | – | LK-VRB-4s: VEGF (1–109) variant with F17I/M18E/Y21F/Q22E/Y25I (protein) APMAEGGGQNHHEVVKIEDVFERSICHPIETLVDIFQEYPDEIEYIFKPSCVPLMRCGGCCNDEGLECVPTEESNITMQIMRIKPHQGQHIGEMSFLQHNKCECRPKKD
– | – | – | 1 nM/1 | – | LK-VRB-5s: VEGF (1–109) variant with D63S/L66R (protein) APMAEGGGQNHHEVVKFMDVYQRSYCHPIETLVDIFQEYPDEIEYIFKPSCVPLMRCGGCCNSEGRECVPTEESNITMQIMRIKPHQGQHIGEMSFLQHNKCECRPKKD
– | – | – | 0.5 nM/0.5 | – | LK-VRB-6s: VEGF (1–109) variant with D63S/G65A/L66T (protein) APMAEGGGQNHHEVVKFMDVYQRSYCHPIETLVDIFQEYPDEIEYIFKPSCVPLMRCGGCCNSEATECVPTEESNITMQIMRIKPHQGQHIGEMSFLQHNKCECRPKKD
– | – | 130 | – | 130 | LK-VRB-18s (ligand) APMAEGGGQNHHEVVKFEDVLQRSSCHPIETLVDIFQEYPDEIEYIFKPSCVPLMRCGGCCNSEMRECVPTEESNITMQIMRIKPHQGQHIGEMSFLQHNKCECRPKKD
– | />14000 | 14 | 14 nM/14 | – | LK-VRB-13s (ligand, human, UniProt P15692-4 27-135, looked up) APMAEGGGQNHHEVVKFEDVYQRSSCHPIETLVDIFQEYPDEIEYIFKPSCVPLMRCGGCCNSEMRECVPTEESNITMQIMRIKPHQGQHIGEMSFLQHNKCECRPKKD
– | />8500 | 11 | 11 nM/11 | – | LK-VRB-23s (ligand, human, UniProt P15692-4 27-135, looked up) APMAEGGGQNHHEVVKFEDVLRRSSCHPIETLVDIFQEYPDEIEYIFKPSCVPLMRCGGCCNDEGRECVPTEESNITMQIMRIKPHQGQHIGEMSFLQHNKCECRPKKD
– | />2400 | 0.5 | 0.5 nM/0.5 | – | LK-VRB-10s (ligand, human, UniProt P15692-4 27-135, looked up) APMAEGGGQNHHEVVKFMDVYQRSSCHPIETLVDIFQEYPDEIEYIFKPSCVPLMRCGGCCNSEMRECVPTEESNITMQIMRIKPHQGQHIGEMSFLQHNKCECRPKKD
– | />5600 | 3 | 3 nM/3 | – | LK-VRB-21s (ligand, human, UniProt P15692-4 27-135, looked up) APMAEGGGQNHHEVVKFEDVLRRSSCHPIETLVDIFQEYPDEIEYIFKPSCVPLMRCGGCCNSEGLECVPTEESNITMQIMRIKPHQGQHIGEMSFLQHNKCECRPKKD
– | />18000 | 10 | 10 nM/10 | – | LK-VRB-24s (ligand, human, UniProt P15692-4 27-135, looked up) APMAEGGGQNHHEVVKFEDVLRRSSCHPIETLVDIFQEYPDEIEYIFKPSCVPLMRCGGCCNSEMLECVPTEESNITMQIMRIKPHQGQHIGEMSFLQHNKCECRPKKD
– | />1400 | 0.6 | 0.6 nM/0.6 | – | LK-VRB-16s (ligand, human, UniProt P15692-4 27-135, looked up) APMAEGGGQNHHEVVKFMDVYRRSSCHPIETLVDIFQEYPDEIEYIFKPSCVPLMRCGGCCNSEMRECVPTEESNITMQIMRIKPHQGQHIGEMSFLQHNKCECRPKKD

Continued, molecule first:

Molecule | IC50 ([1]; first figure of the cell, Flt-IgG, read-out: Relative Binding Affinity, FLT-1 Receptor: concentration at midpoint absorbance) [nM] | Relative Binding Affinity, FLT-1 Receptor: ratio to native VEGF (8–109) [1] | relative binding affinity (ratio to native VEGF (8-109)) [2] [ratio] | Relative Binding Affinity, KDR Receptor: ratio to native VEGF (8–109) [3] | IC50 [2] [nM]
LK-VRB-19s (ligand, human, UniProt P15692-4 27-135, looked up, one of the two is probably misprinted) APMAEGGGQNHHEVVKFEDVYRRSSCHPIETLVDIFQEYPDEIEYIFKPSCVPLMRCGGCCNSEMRECVPTEESNITMQIMRIKPHQGQHIGEMSFLQHNKCECRPKKD | – | />35000 | 7 | 7 nM/7 | –
LK-VRB-17s (ligand) APMAEGGGQNHHEVVKFEDVLRRSYCHPIETLVDIFQEYPDEIEYIFKPSCVPLMRCGGCCNSEMRECVPTEESNITMQIMRIKPHQGQHIGEMSFLQHNKCECRPKKD | – | />1900 | 130 | – | –
LK-VRB-3s: VEGF (1–109) variant with F17I/M18E/Y21F/Q22K/Y25S (protein) APMAEGGGQNHHEVVKIEDVFKRSSCHPIETLVDIFQEYPDEIEYIFKPSCVPLMRCGGCCNDEGLECVPTEESNITMQIMRIKPHQGQHIGEMSFLQHNKCECRPKKD | – | – | – | 1 nM/1 | –
LK-VRB-11s (ligand, human, UniProt P15692-4 27-135, looked up) APMAEGGGQNHHEVVKFEDVLQRSYCHPIETLVDIFQEYPDEIEYIFKPSCVPLMRCGGCCNSEMRECVPTEESNITMQIMRIKPHQGQHIGEMSFLQHNKCECRPKKD | – | />14000 | 2 | 2 nM/2 | –
LK-VRB-22s (ligand, human, UniProt P15692-4 27-135, looked up) APMAEGGGQNHHEVVKFEDVLRRSSCHPIETLVDIFQEYPDEIEYIFKPSCVPLMRCGGCCNDEMLECVPTEESNITMQIMRIKPHQGQHIGEMSFLQHNKCECRPKKD | – | />30 | 4 | 4 nM/4 | –
LK-VRB-14s (ligand, human, UniProt P15692-4 27-135, looked up) APMAEGGGQNHHEVVKFMDVLRRSYCHPIETLVDIFQEYPDEIEYIFKPSCVPLMRCGGCCNSEMRECVPTEESNITMQIMRIKPHQGQHIGEMSFLQHNKCECRPKKD | – | />2900 | 0.5 | 0.5 nM/0.5 | –
LK-VRB-20s (ligand, human, UniProt P15692-4 27-135, looked up) APMAEGGGQNHHEVVKFMDVLRRSSCHPIETLVDIFQEYPDEIEYIFKPSCVPLMRCGGCCNSEMRECVPTEESNITMQIMRIKPHQGQHIGEMSFLQHNKCECRPKKD | – | />10000 | 2 | 2 nM/2 | –
LK-VRB-12s (ligand, human, UniProt P15692-4 27-135, looked up) APMAEGGGQNHHEVVKFEDVYRRSYCHPIETLVDIFQEYPDEIEYIFKPSCVPLMRCGGCCNSEMRECVPTEESNITMQIMRIKPHQGQHIGEMSFLQHNKCECRPKKD | – | />5600 | 0.4 | 0.4 nM/0.4 | –
LK-VRB-15s (ligand, human, UniProt P15692-4 27-135, looked up) APMAEGGGQNHHEVVKFMDVLQRSSCHPIETLVDIFQEYPDEIEYIFKPSCVPLMRCGGCCNSEMRECVPTEESNITMQIMRIKPHQGQHIGEMSFLQHNKCECRPKKD | – | />21000 | 2 | 2 nM/2 | –
